Test results: IntAct's records for PubMed 12134079

B1: "Bis(monoacylglycero)phosphate synthase CLN5" (Homo sapiens), O75503 (parent)
chain: MAQEVDTAQGAEMRRGAGAARGRASWCWALALLWLAVVPGWSRVSGIPSRRHWPVPYKRFDFRPKPDPYCQAKYTFCPTGSPIPVMEGDDDIEVFRLQAPVWEFKYGDLLGHLKIMHDAIGFRSTLTGKNYTMEWYELFQLGNCTFPHLRPEMDAPFWCNQGAACFFEGIDDVHWKENGTLVQVATISGNMFNQMAKWVKQDNETGIYYETWNVKASPEKGAETWFDSYDCSKFVLRTFNKLAEFGAEFKNIETNYTRIFLYSGEPTYLGNETSVFGPTGNKTLGLAIKRFYYPFKPHLPTKEFLLSLLQIFDAVIVHKQFYLFYNFEYWFLPMKFPFIKITYEEIPLPIRNKTLSGL
partner: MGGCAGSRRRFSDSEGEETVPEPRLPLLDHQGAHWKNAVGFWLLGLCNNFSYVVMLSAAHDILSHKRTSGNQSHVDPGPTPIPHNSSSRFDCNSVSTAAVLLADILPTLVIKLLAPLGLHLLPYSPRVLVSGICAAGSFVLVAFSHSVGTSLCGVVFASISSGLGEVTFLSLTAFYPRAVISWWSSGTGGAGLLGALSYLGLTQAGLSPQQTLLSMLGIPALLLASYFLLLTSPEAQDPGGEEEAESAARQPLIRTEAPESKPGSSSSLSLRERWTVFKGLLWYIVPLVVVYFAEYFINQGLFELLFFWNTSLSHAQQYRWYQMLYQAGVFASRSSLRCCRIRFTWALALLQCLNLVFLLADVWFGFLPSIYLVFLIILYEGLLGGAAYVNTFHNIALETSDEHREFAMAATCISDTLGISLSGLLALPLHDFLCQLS

Variants of: B1
Settings: with cln3_human CLN3, Q13286

Q: Which “effect of a mutation on the interaction” value does the source give for MAQEVDTAQGAEMRRGAGAARGRASWCWALALLWLAVVPGWSRVSGIPSRRHWPVPYKRFDFRPKPDPYCQAKYTFCPTGSPIPVMEGDDDIEVFRLQAPVWEFKYGDLLGHLKIMHDAIGFRSTLTGKNYTMEWYELFQLGNCTFPHLRPEMDAPFWCNQGAACFFEGIDDVHWKENGTLVQVATISGNMFNQMAKWVKQDNETGIYYETWNVKASPEKGAETWFDSYNCSKFVLRTFNKLAEFGAEFKNIETNYTRIFLYSGEPTYLGNETSVFGPTGNKTLGLAIKRFYYPFKPHLPTKEFLLSLLQIFDAVIVHKQFYLFYNFEYWFLPMKFPFIKITYEEIPLPIRNKTLSGL [D230N] here?
A: with no effect
